Laboratory results as given in US20100086552A1 (VALTION TEKNILLINEN TUTKIMUSKESKUS, published 2010).
Where a chain is given by its changes, count along the chain named.

T1: native bovine milk β-lactoglobulin (nBLG, Sigma) (bovine, UniProt P02754 17-178, biotinylated where immobilised on streptavidin wells or chips; the soluble competitor and the crystallised protein are not biotinylated)
T1 construct: also called native BLG; β-lactoglobulin AB dimer
T1 sequence: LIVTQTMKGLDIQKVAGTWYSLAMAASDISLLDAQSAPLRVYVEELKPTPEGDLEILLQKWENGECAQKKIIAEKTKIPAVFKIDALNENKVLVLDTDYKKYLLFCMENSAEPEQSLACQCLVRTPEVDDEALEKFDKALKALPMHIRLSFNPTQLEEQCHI

T2: rBLG-His6 (recombinant bovine β-lactoglobulin with C-terminal His6 tag) (bovine, UniProt P02754 17-178, biotinylated with Sulfo-NHS-LC-biotin (2 mol biotin : 1 mol protein) for immobilisation)
T2 construct: It was secreted to the E. coli periplasm through a pelB signal that is not part of the entry; also called recombinant BLG
T2 chain: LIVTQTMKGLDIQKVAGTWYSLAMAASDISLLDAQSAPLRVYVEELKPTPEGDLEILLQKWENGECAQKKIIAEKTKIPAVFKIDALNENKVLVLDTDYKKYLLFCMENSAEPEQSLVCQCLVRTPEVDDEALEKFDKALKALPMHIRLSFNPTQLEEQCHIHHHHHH

T3: rBLG-His6 T18Y (bovine, UniProt P02754 17-178, biotinylated with Sulfo-NHS-LC-biotin (2 mol biotin : 1 mol protein) for immobilisation)
T3 chain: T2 chain with T18Y

T4: rBLG-His6 T18Y/E45Y/L57Y (bovine, UniProt P02754 17-178, biotinylated with Sulfo-NHS-LC-biotin (2 mol biotin : 1 mol protein) for immobilisation)
T4 construct: also called Triple mutant; Triple
T4 chain: T2 chain with T18Y, E45Y, L57Y

B1: peptide KRVG (from the HCDR3 of D1 IgE Fab) (peptide)
peptide: KRVG
B2: D1 IgE Fab (human anti-β-lactoglobulin Fab fragment with human IgG1 subtype, derived from the D1 scFv of a human IgE scFv phage library) (Fab, V domains shown)
VH: QVSLRESGGGLVQPGRSLRLSCTASGFTFRHHGMTWVRQAPGKGLEWVASLSGSGTKTHFADSVKGRFTISRDNSNNTLYLQMDNVRDEDTAIYYCAKAKRVGATGYFDLWGRGTLVTVSS
VL: DIVMTQSPSSLSASVGDRVTITCRASQGISSRLAWYQQKPGKAPKLLIYAASSLQSGVPSRFSGSGSGTEFTLTISSLQPEDFATYYCQQYHSYPWTFGQGTKVEIKR
notes: it was made in E. coli RV308 and purified on nickel; also called D1/Fab; Fab/D1

Columns and labels:
[1] = target: T1, native bovine milk β-lactoglobulin …; assay: competitive ELISA: biotinylated BLG AB dimer on streptavidin wells, KRVG peptide incubated with the immobilised BLG, wells washed or not washed, then D1 IgE Fab (the blocked ligand); AFOS-conjugated goat anti-human kappa antibody, A405
Protocol: In competitive ELISA the biotinylated AB dimer of BLG was immobilised onto streptavidin-coated microtitre wells. First the peptide (an inhibitor) was dissolved into 0.5% BSA-PBS and then different amounts of it were incubated with the immobilised BLG. After that the wells were either washed trice with PBS or not. […] The bound antibody was detected with AFOS-conjugated goat anti-human kappa antibody.

[2] = target: T1, native bovine milk β-lactoglobulin …; assay: BIAcore SPR, biotinylated nBLG on streptavidin chip, D1 IgE Fab as analyte (1.1-138.9 nM)
Protocol: (§1) BIAcore analysis of the nBLG, rBLG-His6 and its mutants.
(§2) The biotinylated BLGs were immobilised in HBS buffer (10 mM Hepes, 0.15M NaCl, 3.4 mM EDTA, 0.005% BIAcore P20 surfactant, pH 7.4) and at a concentration of 1 μg/ml onto the streptavidin biosensor chip resulting in a surface of approximately 400-500 RU. The biotinylated nBLG was immobilised only with 200 RU onto the surface of the SA-chip.

[3] = target: T2, rBLG-His6 (recombinant bovine …); assay: BIAcore SPR, biotinylated rBLG-His6 on streptavidin chip, D1 IgE Fab as analyte (1.1-138.9 nM)
Protocol: as §1, §2

rBLG-His6 T18Y = target: T3, rBLG-His6 T18Y; assay: BIAcore SPR, biotinylated rBLG-His6 T18Y on streptavidin chip, D1 IgE Fab as analyte (1.1-138.9 nM)
Protocol: as §1, §2

bsa = target: T5, bsa (Bos taurus (bovine), UniProt P02769); assay: ELISA: D1 IgE Fab on wells with bovine serum albumin, AFOS-conjugated goat anti-human kappa antibody, A405 after 20 min
T5 construct: also called bovine serum albumin
T5 sequence (P02769 25-607 limits assumed): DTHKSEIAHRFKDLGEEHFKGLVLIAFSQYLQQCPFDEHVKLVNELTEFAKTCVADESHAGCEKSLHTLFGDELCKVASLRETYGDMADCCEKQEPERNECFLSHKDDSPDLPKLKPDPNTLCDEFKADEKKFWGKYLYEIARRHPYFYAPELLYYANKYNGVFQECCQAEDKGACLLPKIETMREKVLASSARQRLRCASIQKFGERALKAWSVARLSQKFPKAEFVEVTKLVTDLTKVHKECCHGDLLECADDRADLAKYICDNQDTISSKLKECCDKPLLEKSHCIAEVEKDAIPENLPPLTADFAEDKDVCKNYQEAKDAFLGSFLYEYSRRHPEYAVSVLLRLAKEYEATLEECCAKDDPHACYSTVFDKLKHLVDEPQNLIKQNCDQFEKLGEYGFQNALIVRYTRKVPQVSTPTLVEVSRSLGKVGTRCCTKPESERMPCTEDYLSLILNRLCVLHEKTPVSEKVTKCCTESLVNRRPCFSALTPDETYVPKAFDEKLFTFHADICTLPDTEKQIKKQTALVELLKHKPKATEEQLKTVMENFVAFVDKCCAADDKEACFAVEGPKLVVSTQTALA
Protocol: (§3) Biotinylated nBLG, rBLG-His6 or its mutants were immobilised on to the SA-microtitre wells.
(§4) After a 1-h incubation the wells were washed three times with PBS. The detection of the BLGs was carried out using AFOS-conjugated goat anti-human kappa antibody (Southern Biotech). Then p-nitrophenylphosphate substrate (Sigma) was added to the wells (2 mg/ml in diethanolamine buffer).

rBLG-His6 T18Y/E45Y/L57Y = target: T4, rBLG-His6 T18Y/E45Y/L57Y; assay: ELISA: 1 µg biotinylated BLG on streptavidin wells, D1 IgE Fab, AFOS-conjugated goat anti-human kappa antibody, A405 after 20 min
Protocol: as §3, §4

| Binder | binding result [1] | Ka [2] [M⁻¹] | Kd [2] [nM] | koff [2] [s⁻¹] | kon [2] [M⁻¹ s⁻¹] | Ka [3] [M⁻¹] | Kd [3] [nM] | koff [3] [s⁻¹] | kon [3] [M⁻¹ s⁻¹] | Ka (rBLG-His6 T18Y) [M⁻¹] | Kd (rBLG-His6 T18Y) [nM] | koff (rBLG-His6 T18Y) [s⁻¹] | kon (rBLG-His6 T18Y) [M⁻¹ s⁻¹] | binding result (bsa) | binding result (rBLG-His6 T18Y/E45Y/L57Y) |
| --- | --- | --- | --- | --- | --- | --- | --- | --- | --- | --- | --- | --- | --- | --- | --- |
| B1 | binds | – | – | – | – | – | – | – | – | – | – | – | – | – | – |
| B2 | – | 3.7e+08 | 2.7 | 0.0048 | 1.8e+06 | 1.2e+08 | 8.5 | 0.0082 | 961000 | 1.6e+06 | 610 | 0.082 | 130000 | no binding (tested: 1:15000 dilution of 1.6 mg/ml) | no binding (tested: 1:15000 dilution of 1.6 mg/ml) |
